Assay results reported in the supplement of paper PMC9112550, “Optimization of the antimicrobial peptide Bac7 by deep mutational scanning” (BMC Biology, 2022).

tested on: Escherichia coli TOP10; assay: shrunken log2 fold change of peptide-encoding DNA abundance (4.5 h post-induction vs induction); higher = less antimicrobial activity (less host growth inhibition); conditions: time post-induction: 4.5 h; library: site-saturation at positions 5, 18, 19, 20
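Also: peptides expressed intracellularly from a pBAD plasmid library in pooled LB shake-flask culture, induced with 0.3% L-arabinose, DNA abundance read by NGS, three biological replicates, DESeq2 with apeglm shrinkage.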

Sequence | shrunken log2 fold change
RRIRYRPPRLPRPRPRPMNDPRP | -0.188
RRIRPRPPRLPRPRPRPGHWPRP | 0.123
RRIRTRPPRLPRPRPRPQEQPRP | 0.021
RRIRWRPPRLPRPRPRPQHDPRP | 0.202
RRIRMRPPRLPRPRPRPAVYPRP | 0.265
RRIRNRPPRLPRPRPRPMQFPRP | -0.466
RRIRDRPPRLPRPRPRPQYFPRP | 0.0205
RRIRMRPPRLPRPRPRPQAPPRP | 0.718
RRIRLRPPRLPRPRPRPKECPRP | -0.0179
RRIRSRPPRLPRPRPRPVWQPRP | 0.168
RRIRCRPPRLPRPRPRPPVHPRP | -0.112
RRIRSRPPRLPRPRPRPLLSPRP | -0.051
RRIRCRPPRLPRPRPRPHCIPRP | -0.468
RRIRFRPPRLPRPRPRPKGCPRP | 0.418
RRIRIRPPRLPRPRPRPRPLPRP | 0.181
RRIRNRPPRLPRPRPRPLNNPRP | -0.478
RRIRNRPPRLPRPRPRPGPTPRP | 0.3
RRIRGRPPRLPRPRPRPGLHPRP | 0.682
RRIRYRPPRLPRPRPRPVWDPRP | -0.0448
RRIRQRPPRLPRPRPRPLQDPRP | -0.0148
RRIRIRPPRLPRPRPRPWGTPRP | -0.859
RRIRWRPPRLPRPRPRPHWCPRP | -0.062
RRIRRRPPRLPRPRPRPIIEPRP | 0.0476
RRIRSRPPRLPRPRPRPLNIPRP | -0.422
RRIRKRPPRLPRPRPRPNGMPRP | 0.0655

Sequence | shrunken log2 fold change
RRIRQRPPRLPRPRPRPPNSPRP | -0.0968
RRIRARPPRLPRPRPRPRSWPRP | 0.533
RRIRERPPRLPRPRPRPRWCPRP | 0.0485
RRIRERPPRLPRPRPRPHYWPRP | -0.353
RRIRDRPPRLPRPRPRPTVMPRP | -0.221
RRIRRRPPRLPRPRPRPVYPPRP | -0.284
RRIRVRPPRLPRPRPRPWTPPRP | 0.158
RRIRHRPPRLPRPRPRPPWSPRP | 0.093
RRIRGRPPRLPRPRPRPWEWPRP | 0.911
RRIRHRPPRLPRPRPRPWVMPRP | -0.166
RRIRPRPPRLPRPRPRPIQNPRP | -0.11
RRIRARPPRLPRPRPRPWHGPRP | 0.0697
RRIRDRPPRLPRPRPRPHCGPRP | 0.00511
RRIRRRPPRLPRPRPRPRKIPRP | 0.405
RRIRYRPPRLPRPRPRPRNDPRP | -0.205
RRIRSRPPRLPRPRPRPADIPRP | 0.0495
RRIRARPPRLPRPRPRPFCTPRP | 0.0721
RRIRIRPPRLPRPRPRPMVDPRP | -0.0165
RRIRKRPPRLPRPRPRPLVWPRP | 0.298
RRIRARPPRLPRPRPRPPVRPRP | 0.609
RRIRSRPPRLPRPRPRPMDSPRP | -0.279
RRIRYRPPRLPRPRPRPPFLPRP | -0.178
RRIRARPPRLPRPRPRPKVEPRP | 0.571
RRIRTRPPRLPRPRPRPPWSPRP | 0.194
RRIRHRPPRLPRPRPRPAIEPRP | 0.0588

Sequence | shrunken log2 fold change
RRIRGRPPRLPRPRPRPMGEPRP | 0.902
RRIRHRPPRLPRPRPRPANAPRP | -0.0554
RRIRRRPPRLPRPRPRPDICPRP | 0.0657
RRIRTRPPRLPRPRPRPFNCPRP | -0.038
RRIRQRPPRLPRPRPRPEYAPRP | -0.042
RRIRYRPPRLPRPRPRPDALPRP | -0.212
RRIRFRPPRLPRPRPRPVTGPRP | 0.0131
RRIRSRPPRLPRPRPRPQVQPRP | 0.374
RRIRGRPPRLPRPRPRPYILPRP | -0.614
RRIRRRPPRLPRPRPRPDRCPRP | 0.00426
RRIRARPPRLPRPRPRPCVPPRP | -0.0952
RRIRTRPPRLPRPRPRPLWKPRP | -0.178
RRIRIRPPRLPRPRPRPGIYPRP | -0.585
RRIRGRPPRLPRPRPRPLSNPRP | 0.416
RRIRCRPPRLPRPRPRPHENPRP | -0.0452
RRIRPRPPRLPRPRPRPPWFPRP | 0.32
RRIRNRPPRLPRPRPRPQFQPRP | 0.0437
RRIRARPPRLPRPRPRPEPNPRP | 1.16
RRIRHRPPRLPRPRPRPMFAPRP | -0.245
RRIRARPPRLPRPRPRPEKSPRP | 1.01
RRIRARPPRLPRPRPRPCGVPRP | 0.255
RRIRIRPPRLPRPRPRPNSGPRP | -0.177
RRIRQRPPRLPRPRPRPDTAPRP | -0.0746
RRIRGRPPRLPRPRPRPDDVPRP | 0.966
RRIRARPPRLPRPRPRPEWTPRP | 0.591

Sequence | shrunken log2 fold change
RRIRPRPPRLPRPRPRPRHAPRP | 0.502
RRIRIRPPRLPRPRPRPQWKPRP | -0.186
RRIRARPPRLPRPRPRPLLLPRP | 0.313
RRIRDRPPRLPRPRPRPMKRPRP | 0.108
RRIRVRPPRLPRPRPRPVAMPRP | 0.0876
RRIRERPPRLPRPRPRPYMSPRP | -0.0135
RRIRIRPPRLPRPRPRPDTEPRP | -0.853
RRIRGRPPRLPRPRPRPRHFPRP | 0.379
RRIRWRPPRLPRPRPRPCMEPRP | -0.0563
RRIRCRPPRLPRPRPRPHCMPRP | -0.517
RRIRERPPRLPRPRPRPYPDPRP | -1.61
RRIRPRPPRLPRPRPRPDPWPRP | -0.0279
RRIRERPPRLPRPRPRPMDQPRP | -0.00192
RRIRCRPPRLPRPRPRPSRMPRP | -0.144
RRIRIRPPRLPRPRPRPNSFPRP | -0.391
RRIRNRPPRLPRPRPRPLGRPRP | 0.244
RRIRKRPPRLPRPRPRPARNPRP | 0.00491
RRIRFRPPRLPRPRPRPTCEPRP | 0.0933
RRIRSRPPRLPRPRPRPGLDPRP | 0.127
RRIRKRPPRLPRPRPRPYPWPRP | -0.4
RRIRLRPPRLPRPRPRPGIAPRP | -0.206
RRIRPRPPRLPRPRPRPDVPPRP | -0.0575
RRIRARPPRLPRPRPRPYLTPRP | -0.655
RRIRNRPPRLPRPRPRPEDKPRP | 0.114
RRIRMRPPRLPRPRPRPHCKPRP | 0.00214

Sequence | shrunken log2 fold change
RRIRRRPPRLPRPRPRPIMMPRP | -0.00819
RRIRQRPPRLPRPRPRPKPHPRP | 0.167
RRIRHRPPRLPRPRPRPNWPPRP | 0.234
RRIRLRPPRLPRPRPRPGLNPRP | 0.15
RRIRCRPPRLPRPRPRPQILPRP | -0.354
RRIRKRPPRLPRPRPRPHERPRP | 0.231
RRIRLRPPRLPRPRPRPHSYPRP | -0.0533
RRIRFRPPRLPRPRPRPKADPRP | -0.0989
RRIRSRPPRLPRPRPRPMFPPRP | -0.22
RRIRERPPRLPRPRPRPAILPRP | -0.629
RRIRSRPPRLPRPRPRPQLHPRP | -0.175
RRIRWRPPRLPRPRPRPPTCPRP | 0.614
RRIRGRPPRLPRPRPRPECKPRP | 0.841
RRIRIRPPRLPRPRPRPTVSPRP | -0.0336
RRIRWRPPRLPRPRPRPECKPRP | 0.685
RRIRNRPPRLPRPRPRPGPKPRP | 0.284
RRIRERPPRLPRPRPRPFQNPRP | 0.02
RRIRPRPPRLPRPRPRPPGTPRP | 0.317
RRIRVRPPRLPRPRPRPMWSPRP | -0.0513
RRIRLRPPRLPRPRPRPWKGPRP | 0.0434
RRIRWRPPRLPRPRPRPATTPRP | 0.859
RRIRARPPRLPRPRPRPVQHPRP | 0.555
RRIRPRPPRLPRPRPRPCKRPRP | -0.0941
RRIRQRPPRLPRPRPRPDAMPRP | 0.0556
RRIRRRPPRLPRPRPRPALDPRP | 0.586
